Test results taken from the supplement of paper PMC7125110.
± gives the standard error. For some of these results: Variants at the floor of the assay were thinned out.

B1: glmS ribozyme (parent)
chain: AUAAAAGCGCCAGAACUACAGAAAUGUAGUUGACGAGGAGGAGGUUUAUCGAAUUUUCGGCGGAUGCCUCCAAA

How the values were obtained:
Details in all cases: with glucosamine-6-phosphate
glucosamine-6-phosphate [1] = variants of: B1; assay: kcat; higher = faster cleavage; RNA array
How it was run: (§1)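 Tiles bearing barcoded ribozyme variants, transcribed in situ by E. coli RNA polymerase on sequenced MiSeq chips, were imaged over ~14 h at 37 °C using a hybridised Cy3 probe. Glucosamine-6-phosphate was supplied at 40 μM to 10 mM in HEPES/KCl/Mg(OAc)2 buffer. kobs came from one- or two-exponential decay fits to normalised per-tile medians, and weighted Michaelis–Menten fits then provided kcat and KM.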

glucosamine-6-phosphate [2] = variants of: B1; assay: self-cleavage kobs at 640 uM GlcN6P; higher = faster cleavage; RNA array
How it was run: as §1

glucosamine-6-phosphate [3] = variants of: B1; assay: self-cleavage kobs at 2500 uM GlcN6P; higher = faster cleavage; RNA array
How it was run: as §1

glucosamine-6-phosphate [4] = variants of: B1; assay: self-cleavage kobs at 10000 uM GlcN6P; higher = faster cleavage; RNA array
How it was run: as §1

glucosamine-6-phosphate [5] = variants of: B1; assay: KM; higher = weaker cofactor use; RNA array
How it was run: as §1

glucosamine-6-phosphate [6] = variants of: B1; assay: self-cleavage kobs at 40 uM GlcN6P; higher = faster cleavage; RNA array
How it was run: as §1

glucosamine-6-phosphate [7] = variants of: B1; assay: self-cleavage kobs at 160 uM GlcN6P; higher = faster cleavage; RNA array
How it was run: as §1

| Variant | kcat (glucosamine-6-phosphate [1]) [s⁻¹] | self-cleavage kobs at 640 uM GlcN6P (glucosamine-6-phosphate [2]) [s⁻¹] | self-cleavage kobs at 2500 uM GlcN6P (glucosamine-6-phosphate [3]) [s⁻¹] | self-cleavage kobs at 10000 uM GlcN6P (glucosamine-6-phosphate [4]) [s⁻¹] | KM (glucosamine-6-phosphate [5]) [µM] | self-cleavage kobs at 40 uM GlcN6P (glucosamine-6-phosphate [6]) [s⁻¹] | self-cleavage kobs at 160 uM GlcN6P (glucosamine-6-phosphate [7]) [s⁻¹] |
| --- | --- | --- | --- | --- | --- | --- | --- |
| C11U G41A | 8.97e-05 ± 1e-05 | 3.01e-05 ± 1.2e-05 | 8.81e-05 ± 1.8e-05 | 7.91e-05 ± 8.6e-06 |  |  |  |
| G32U U54A | 0.00121 ± 4.3e-05 | 0.000107 ± 1.4e-05 | 0.000344 ± 4.3e-05 | 0.000726 ± 0.0001 | 6510 ± 320 |  |  |
| G66U | 0.00275 ± 0.00056 | 0.00057 ± 1.2e-05 | 0.00179 ± 6.8e-05 | 0.00225 ± 6.3e-05 | 2210 ± 580 | 5.79e-05 ± 1.2e-06 | 0.000159 ± 5.1e-06 |
| G37A G59A | < 1e-05 |  |  |  |  | < 1e-05 |  |
| G13U G32U | 0.00043 ± 2.8e-05 | 6.64e-05 ± 8.3e-06 | 0.000182 ± 3.1e-05 | 0.000321 ± 3.4e-05 | 3420 ± 370 |  | 2.69e-05 ± 1.1e-05 |
| G9C G60A | < 1e-05 | < 1e-05 |  |  |  |  |  |
| A52G U65C | 3.32e-05 ± 1.6e-06 |  |  |  | 248 ± 83 |  |  |
| A14C U30C A53G | 1.63e-05 ± 3.1e-06 |  |  |  |  |  |  |
| A12C A33C | 0.000196 ± 1.6e-05 | 3.98e-05 ± 9.4e-06 | 8.11e-05 ± 1.8e-05 | 0.000156 ± 1.8e-05 | 2860 ± 540 |  |  |
| C10A C67G | 8.97e-05 ± 1.7e-05 | 8.76e-05 ± 1.4e-05 | 7.6e-05 ± 1.7e-05 |  |  | 2.69e-05 ± 1.1e-05 |  |
| C16U U65G | 0.0044 ± 0.00062 | 0.000544 ± 7.2e-05 | 0.00147 ± 0.00018 | 0.0032 ± 0.00028 | 4300 ± 840 | 5.04e-05 ± 6.5e-06 | 0.000151 ± 1.7e-05 |
| U31G G66U | 0.000571 ± 6e-05 | 0.000126 ± 1.5e-05 | 0.00029 ± 4.4e-05 | 0.000452 ± 8e-05 | 2410 ± 400 |  | 2.77e-05 ± 1e-05 |
| C16G G59A | 1.51e-05 ± 3.3e-06 |  |  |  |  |  |  |
| A12U U56G | 0.0516 ± 0.013 | 0.0197 ± 0.0057 |  | 0.0461 ± 0.011 | 1320 ± 390 | 0.00172 ± 0.0002 | 0.00468 ± 0.00073 |
| A6U U57G C67G | 2.88e-05 ± 7.6e-06 |  |  |  |  |  |  |
| G44U U55G | 0.000311 ± 3.4e-05 | 7.46e-05 ± 1.3e-05 | 0.000204 ± 3.6e-05 | 0.00025 ± 4.1e-05 | 1860 ± 400 |  |  |
| G43U U55C | 3.2e-05 ± 2.4e-06 |  | 3.2e-05 ± 1.2e-05 | 3.01e-05 ± 8.7e-06 |  |  |  |
| G41C U55G | 0.00012 ± 1.1e-05 |  | 8.8e-05 ± 3.3e-05 | 9.95e-05 ± 1.2e-05 | 1930 ± 750 |  |  |

| Variant | kcat (glucosamine-6-phosphate [1]) [s⁻¹] | self-cleavage kobs at 640 uM GlcN6P (glucosamine-6-phosphate [2]) [s⁻¹] | self-cleavage kobs at 2500 uM GlcN6P (glucosamine-6-phosphate [3]) [s⁻¹] | self-cleavage kobs at 10000 uM GlcN6P (glucosamine-6-phosphate [4]) [s⁻¹] | KM (glucosamine-6-phosphate [5]) [µM] | self-cleavage kobs at 40 uM GlcN6P (glucosamine-6-phosphate [6]) [s⁻¹] | self-cleavage kobs at 160 uM GlcN6P (glucosamine-6-phosphate [7]) [s⁻¹] |
| --- | --- | --- | --- | --- | --- | --- | --- |
| G38C G40A | < 1e-05 |  |  | < 1e-05 |  |  | < 1e-05 |
| G63C C71G | < 1e-05 | < 1e-05 |  | < 1e-05 | 222 ± 79 | < 1e-05 | < 1e-05 |
| A15G U31A | 0.0107 ± 0.0009 | 0.00236 ± 0.00063 | 0.00493 ± 0.0014 | 0.00926 ± 0.0017 | 2220 ± 260 | 0.000199 ± 4.4e-05 | 0.000722 ± 0.00015 |
| A33G C58G | < 1e-05 |  |  | < 1e-05 |  |  |  |
| A53C A64C | 8.21e-05 ± 2.3e-05 |  |  | 6.96e-05 ± 1.6e-05 |  |  |  |
| U56C C68G | < 1e-05 |  |  | < 1e-05 |  |  | < 1e-05 |
| G40C A53U | 0.00427 ± 0.00097 | 0.000607 ± 0.00011 | 0.00226 ± 0.00037 | 0.0035 ± 0.00035 | 2570 ± 870 | 8.31e-05 ± 9.2e-06 | 0.000241 ± 5.8e-05 |
| G51U U57G | < 1e-05 |  |  | < 1e-05 |  |  |  |
| A53C G59C | < 1e-05 | < 1e-05 |  | < 1e-05 |  | < 1e-05 |  |
| C11U C70G C71U | 5.18e-05 ± 1e-05 | 7.99e-05 ± 2.7e-05 |  | 5.18e-05 ± 1.3e-05 |  |  |  |
| A14U C70A | 0.000118 ± 4.4e-06 | 6.15e-05 ± 8e-06 | 9.59e-05 ± 1e-05 | 0.000112 ± 1.1e-05 | 568 ± 71 |  | 2.57e-05 ± 8.7e-06 |
| A42G G44A | 0.00011 ± 2.6e-05 |  | 7.65e-05 ± 1.8e-05 | 8.49e-05 ± 1.1e-05 |  |  |  |
| C50G U69C | 0.000107 ± 2.1e-05 | 9.95e-05 ± 1.7e-05 | 0.000193 ± 3.4e-05 | 9.16e-05 ± 1.9e-05 |  | 0.000118 ± 3.6e-05 | 9.81e-05 ± 2.6e-05 |
| G38C C50G | 1.28e-05 ± 1.9e-06 |  |  |  |  |  |  |
| G40C C67U | 0.000108 ± 1.3e-05 |  | 7.55e-05 ± 1.5e-05 | 8.8e-05 ± 7e-06 |  |  |  |
| G40U U56G | 0.00147 ± 0.00055 | 0.000431 ± 6e-05 | 0.00136 ± 0.00015 | 0.000885 ± 0.00019 |  | 4.98e-05 ± 1.7e-05 | 0.000107 ± 1.6e-05 |
| A64U G66A C67U | 1.79e-05 ± 6.9e-06 |  |  |  |  | < 1e-05 |  |
| U31G A52U | 8.72e-05 ± 5.4e-06 |  | 5.7e-05 ± 9.5e-06 | 7.41e-05 ± 1.1e-05 | 1520 ± 320 | < 1e-05 |  |
